{"source": "paper PMC7069958", "about": "“Multi-level and lineage-specific interactomes of the Hox transcription factor Ubx contribute to its functional specificity”", "target": "mB*UbxN51A (UniProt P83949-2 1-380, N336A)", "sequence (P83949 other isoform, or with tags, fused parts or gaps N336A)": "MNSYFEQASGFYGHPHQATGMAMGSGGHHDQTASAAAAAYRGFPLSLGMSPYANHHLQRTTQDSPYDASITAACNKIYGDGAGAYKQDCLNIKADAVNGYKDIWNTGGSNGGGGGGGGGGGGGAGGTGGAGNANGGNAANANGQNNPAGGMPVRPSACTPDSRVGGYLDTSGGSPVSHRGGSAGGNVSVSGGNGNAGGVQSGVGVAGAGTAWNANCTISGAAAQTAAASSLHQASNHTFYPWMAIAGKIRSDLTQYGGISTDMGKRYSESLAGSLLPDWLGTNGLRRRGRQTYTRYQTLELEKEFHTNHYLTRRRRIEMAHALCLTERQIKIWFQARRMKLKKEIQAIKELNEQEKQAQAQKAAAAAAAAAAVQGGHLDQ", "assay": "EMSA; 20 mM HEPES pH 7.9, 1.4 mM MgCl2, 1 mM ZnSO4, 40 mM KCl, 0.1 mM EDTA, 5% glycerol, 0.2 ug poly(dI-dC), 0.1 ug BSA, 10 mM DTT, 0.1% NP40, 30 ul, 20 min; gel 6% acrylamide 0.5x TBE at 4 C", "conditions": "protein: recombinant; tags: His, myc-BirA* (N-terminal fusion); label: 5'-Cy5; blunt", "data": [{"binder": "Ubx consensus site probe (dsDNA) DNA 1: TTCAGAGCGAATGATTTATGACCGGTCAAG DNA 2: CTTGACCGGTCATAAATCATTCGCTCTGAA", "values": [{"measurement": "binding result", "result": "no binding"}]}]}
